Results reported in PMC10167327, “Inositol pyrophosphates activate the vacuolar transport chaperone complex in yeast by disrupting a homotypic SPX domain interaction” (Nature Communications, 2023).

T1: Vtc2* (Vtc2(1–553), SPX and TTM domains of Vtc2 without the transmembrane domain) (S. cerevisiae, UniProt P43585 1-553)
T1 construct: Vtc2, subunit of the vacuolar transporter chaperone (VTC) complex, S. cerevisiae, residues 1-553 (SPX and TTM domains, no transmembrane domain); pET27b(+) construct from GenScript with a C-terminal TEV site and His10 tag; source: E. coli Lemo21(DE3) BL21, purified (HisTrap, Superdex 200)
T1 sequence (looked up): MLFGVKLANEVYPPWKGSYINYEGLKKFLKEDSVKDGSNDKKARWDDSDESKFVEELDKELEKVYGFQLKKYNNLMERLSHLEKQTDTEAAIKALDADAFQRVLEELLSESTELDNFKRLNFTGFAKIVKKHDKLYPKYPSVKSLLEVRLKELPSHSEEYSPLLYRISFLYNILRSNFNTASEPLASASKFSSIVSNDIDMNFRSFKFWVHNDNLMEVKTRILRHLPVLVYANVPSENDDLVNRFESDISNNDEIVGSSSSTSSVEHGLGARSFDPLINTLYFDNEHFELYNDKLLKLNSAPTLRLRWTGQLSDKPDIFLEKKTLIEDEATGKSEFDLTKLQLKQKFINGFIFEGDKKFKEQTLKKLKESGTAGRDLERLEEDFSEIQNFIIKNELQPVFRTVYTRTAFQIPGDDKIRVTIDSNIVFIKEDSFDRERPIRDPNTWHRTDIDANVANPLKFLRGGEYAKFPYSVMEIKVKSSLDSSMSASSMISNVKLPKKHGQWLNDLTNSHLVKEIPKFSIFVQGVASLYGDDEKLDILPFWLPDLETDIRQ

B1: Vtc4* (Vtc4(1–487), SPX and TTM domains of Vtc4 without the transmembrane domain) (domain or fragment)
chain: not shown
modifications: RED-tris-NTA 2nd generation dye on the His tag (MST); RED-NHS 2nd generation dye (MST with TTM2)
notes: Vtc4, catalytic subunit of the vacuolar transporter chaperone (VTC) complex, yeast, residues 1-487 (SPX and TTM domains, no transmembrane domain); pET27b(+) construct from GenScript with a C-terminal TEV site and His10 tag; The dye is absent in NMR and cross-linking; also called Vtc4ΔTM; source: E. coli Lemo21(DE3) BL21, purified (HisTrap, Superdex 200); not shown: His10, C-terminal, kept

Key:
Test in all cases: MST; His-tagged Vtc4* or TTM4 labelled with RED-tris-NTA 2nd generation dye, titrated with Vtc2* or SPX2 proteins; MST buffer 15 mM HEPES pH 7.0, 50 mM NaCl, 2 mM DTT; Monolith NT.115, 100 % laser power
Details in all cases: both partners purified
[1] = biological target: T1, Vtc2* (Vtc2(1–553), SPX and TTM domains …)
[2] = biological target: B1
[3] = biological target: T2, TTM4 (TTM domain of Vtc4, Vtc4(192–487)) (S. cerevisiae, UniProt P47075 192-487, RED-tris-NTA 2nd generation dye on the His tag)
T2 construct: Vtc4, yeast, residues 192-487 (triphosphate tunnel metalloenzyme domain); pET27b(+) construct from GenScript with a C-terminal TEV site and His10 tag; source: E. coli Lemo21(DE3) BL21, purified (HisTrap, Superdex 200); not shown: His10, C-terminal, kept
T2 sequence (P47075 192-487): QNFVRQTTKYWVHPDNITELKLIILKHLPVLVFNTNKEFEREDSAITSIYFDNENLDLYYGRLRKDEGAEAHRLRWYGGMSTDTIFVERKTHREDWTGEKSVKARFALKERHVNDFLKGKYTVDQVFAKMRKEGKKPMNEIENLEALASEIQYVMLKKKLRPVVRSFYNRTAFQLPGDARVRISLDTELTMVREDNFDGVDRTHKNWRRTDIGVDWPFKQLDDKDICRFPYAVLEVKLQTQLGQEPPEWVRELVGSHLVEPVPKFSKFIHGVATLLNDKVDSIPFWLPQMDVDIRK

binding result [2] | Binder | also measured
 | B1 | Kd [1]: 13.8 µM
binds | SPX2∆α7 (Vtc2(1–182)) (domain or fragment, S. cerevisiae, UniProt P43585 1-182, looked up, Vtc2, S. cerevisiae, residues 1-182 (SPX domain without helix α7 and the C-terminal linker); source: E. coli Lemo21(DE3) BL21, purified (as SPX2, cation exchange in 20 mM MES pH 6.0); not shown: His5, C-terminal, cleaved) MLFGVKLANEVYPPWKGSYINYEGLKKFLKEDSVKDGSNDKKARWDDSDESKFVEELDKELEKVYGFQLKKYNNLMERLSHLEKQTDTEAAIKALDADAFQRVLEELLSESTELDNFKRLNFTGFAKIVKKHDKLYPKYPSVKSLLEVRLKELPSHSEEYSPLLYRISFLYNILRSNFNTAS | 
binds | SPX2 S187A (domain or fragment, S. cerevisiae, UniProt P43585 1-201, looked up, Vtc2, S. cerevisiae, residues 1-201 (SPX2) with a point mutation in helix α7; also called serine 187 to alanine; source: E. coli Lemo21(DE3) BL21, purified; not shown: His5, C-terminal, cleaved) MLFGVKLANEVYPPWKGSYINYEGLKKFLKEDSVKDGSNDKKARWDDSDESKFVEELDKELEKVYGFQLKKYNNLMERLSHLEKQTDTEAAIKALDADAFQRVLEELLSESTELDNFKRLNFTGFAKIVKKHDKLYPKYPSVKSLLEVRLKELPSHSEEYSPLLYRISFLYNILRSNFNTASEPLAAASKFSSIVSNDIDM | 
 | SPX2 (SPX domain of Vtc2, Vtc2(1–201)) (domain or fragment, S. cerevisiae, UniProt P43585 1-201, looked up, Vtc2, S. cerevisiae, residues 1-201 (SPX domain with helix α7 and the C-terminal linker); Residues of the TEV site may remain at the C-terminus after cleavage; also called Vtc2-SPX domain; source: E. coli Lemo21(DE3) BL21, purified (HisTrap, TEV, reversed HisTrap, cation exchange, Superdex 75); not shown: His5, C-terminal, cleaved) MLFGVKLANEVYPPWKGSYINYEGLKKFLKEDSVKDGSNDKKARWDDSDESKFVEELDKELEKVYGFQLKKYNNLMERLSHLEKQTDTEAAIKALDADAFQRVLEELLSESTELDNFKRLNFTGFAKIVKKHDKLYPKYPSVKSLLEVRLKELPSHSEEYSPLLYRISFLYNILRSNFNTASEPLASASKFSSIVSNDIDM | fold reduction of affinity against Vtc4* [3]: ~20 fold
binds | SPX2 K127A (domain or fragment, S. cerevisiae, UniProt P43585 1-201, looked up, Vtc2, S. cerevisiae, residues 1-201 (SPX2) with a pseudo-active point mutation; source: E. coli Lemo21(DE3) BL21, purified; not shown: His5, C-terminal, cleaved) MLFGVKLANEVYPPWKGSYINYEGLKKFLKEDSVKDGSNDKKARWDDSDESKFVEELDKELEKVYGFQLKKYNNLMERLSHLEKQTDTEAAIKALDADAFQRVLEELLSESTELDNFKRLNFTGFAAIVKKHDKLYPKYPSVKSLLEVRLKELPSHSEEYSPLLYRISFLYNILRSNFNTASEPLASASKFSSIVSNDIDM | 
binds | SPX2 Y19F (domain or fragment, S. cerevisiae, UniProt P43585 1-201, looked up, Vtc2, S. cerevisiae, residues 1-201 (SPX2) with a pseudo-active point mutation; source: E. coli Lemo21(DE3) BL21, purified; not shown: His5, C-terminal, cleaved) MLFGVKLANEVYPPWKGSFINYEGLKKFLKEDSVKDGSNDKKARWDDSDESKFVEELDKELEKVYGFQLKKYNNLMERLSHLEKQTDTEAAIKALDADAFQRVLEELLSESTELDNFKRLNFTGFAKIVKKHDKLYPKYPSVKSLLEVRLKELPSHSEEYSPLLYRISFLYNILRSNFNTASEPLASASKFSSIVSNDIDM | 
binds | SPX2 S189A (domain or fragment, S. cerevisiae, UniProt P43585 1-201, looked up, Vtc2, S. cerevisiae, residues 1-201 (SPX2) with a point mutation in helix α7; also called serine 189 to alanine; source: E. coli Lemo21(DE3) BL21, purified; not shown: His5, C-terminal, cleaved) MLFGVKLANEVYPPWKGSYINYEGLKKFLKEDSVKDGSNDKKARWDDSDESKFVEELDKELEKVYGFQLKKYNNLMERLSHLEKQTDTEAAIKALDADAFQRVLEELLSESTELDNFKRLNFTGFAKIVKKHDKLYPKYPSVKSLLEVRLKELPSHSEEYSPLLYRISFLYNILRSNFNTASEPLASAAKFSSIVSNDIDM | 
binds | SPX2 N121A (domain or fragment, S. cerevisiae, UniProt P43585 1-201, looked up, Vtc2, S. cerevisiae, residues 1-201 (SPX2) with a pseudo-active point mutation; source: E. coli Lemo21(DE3) BL21, purified; not shown: His5, C-terminal, cleaved) MLFGVKLANEVYPPWKGSYINYEGLKKFLKEDSVKDGSNDKKARWDDSDESKFVEELDKELEKVYGFQLKKYNNLMERLSHLEKQTDTEAAIKALDADAFQRVLEELLSESTELDNFKRLAFTGFAKIVKKHDKLYPKYPSVKSLLEVRLKELPSHSEEYSPLLYRISFLYNILRSNFNTASEPLASASKFSSIVSNDIDM | 
